Reference: US20030220254A1, “Composition and method for preparation of an oral dual controlled release formulation of a protein and inhibitor” (TEXAS TECH UNIVERSITY SYSTEM, priority 2002, published 2003)
Read-outs that look alike come from different tables or passages of the source.

How the values were obtained:
[1] = molecular target: T1, α-chymotrypsin (Bos taurus, UniProt P00766); experiment: α-chymotrypsin mediated degradation of insulin with inhibitors (HPLC); format: biochemical
Experimental: (§1) Stability studies in the presence of chicken and duck ovomucoid were conducted. […] The degradation profiles were generated in the presence of 0.1 μM α-chymotrypsin and 0.5 μM trypsin over a period of 60 minutes that served as controls. These concentrations were selected based on a reported study (Schilling & Mitra 1991).
(§2) Samples were taken at 0, 5, 15, 30 and 60 minutes and immediately diluted with cold 1% TFA/TRIS to reduce the pH to 2.5. The samples were analyzed at 4° C. by a reverse-phase HPLC method using a Varian Chromatography Workstation. […] Similar studies were performed with aprotinin.
The protocol used was the same as above with minor modifications. […] The degradation profiles were generated in the presence of α-chymotrypsin and DkOVM. The enzyme to inhibitor ratio used was 1:1 with respect to α-chymotrypsin.

[2] = in vivo; cited from earlier work
[3] = molecular target: T2, trypsin (Bos taurus, UniProt P00760); experiment: trypsin mediated degradation of insulin with inhibitors (HPLC); format: biochemical; settings: trypsin 0.5 μM
T2 construct: gene PRSS1
T2 sequence (P00760 24-246): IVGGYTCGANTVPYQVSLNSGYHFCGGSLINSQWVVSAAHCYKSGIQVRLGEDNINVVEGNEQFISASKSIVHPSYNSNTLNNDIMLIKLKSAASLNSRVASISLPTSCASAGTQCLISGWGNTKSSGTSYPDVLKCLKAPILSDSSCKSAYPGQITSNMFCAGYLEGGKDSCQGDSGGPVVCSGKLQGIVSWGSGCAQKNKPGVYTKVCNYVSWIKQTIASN
Experimental: as §1
as §2, with “Workstation. Plots of insulin remaining versus time were generated.” for “Workstation.”

[4] = system: rat intestinal segments; experiment: Insulin transport across rat intestinal segments (side-by-side diffusion apparatus)
Source text: (§3) Male Sprague Dawley rats weighing between 200-300 g were used for the permeability experiments. The intestine was excised and the jejunum was isolated by a reported method (Asada et al. 1995). Briefly, the duodenal and ileal segments were removed from top and bottom (13 cm on either side) and the residual intestine was designated as jejunum. The respective segments were mounted in a Navicyte Side-By-Side diffusion apparatus with accessories such as water circulator, flowmeter and humidifier.
(§4) The segments were mounted without stripping on a preheated acrylic half-cell and the cell assembly was then placed in a heated block after joining the other half-cell. The exposed surface area was 1.78 cm^2 and the reservoir volume was 6 mL. The donor and receiver compartments were immediately filled with pre-warmed oxygenated Krebs bicarbonate buffer adjusted to pH 7.4 with NaOH or HCl. The composition of buffer used is shown in Table 11, which illustrates the composition of stock solutions used for preparation of Krebs Bicarbonate solution. The stock solutions can be made in 100 mL or 1 L volume and stored in a refrigerator for one month. For preparation of working buffer, 50 mL of each stock solution above is added to a 1 L volumetric flask containing 750 mL of water. The pH was adjusted to 7.4 when necessary.
The mucosal buffer consisted of 40 mM mannitol and the serosal buffer consisted of 40 mM glucose. […] Mannitol equalizes the osmotic load between the mucosal and […] buffers and glucose helps to maintain tissue viability. The buffer was circulated by a gas lift (95%O2/5%CO2). The flow rate of gas lift was adjusted to 10±2 mL/min using a flow meter. The tissues were equilibrated for 10 min before the drug solution was added.
For the marker studies, the concentration of ^14C mannitol in donor compartment was 3.5×10^−5 μM and that of H testosterone was 4×10^−2 μM. The integrity of the tissues was determined by calculating the permeability coefficient (Papp) of mannitol. For α-chymotrypsin studies, the enzyme was added immediately after the addition of drug and inhibitor solution to achieve a final concentration of 0.5 μM. Samples (1 mL) were taken from the serosal side at various times up to 180 min and replaced with fresh transport medium. Aliquots of 10 μL were taken from the mucosal side at the beginning and end of the experiment and analyzed by a HPLC method discussed later. […] The radioactive samples were analyzed by using a liquid scintillation counter.
(§5) The results of experiments performed at least in triplicate are presented as mean±SE. Statistical differences between permeability in the presence of DkOVM and CkOVM and the means were determined by one-way analysis of variance (ANOVA). […]

[5] = molecular target: T1, α-chymotrypsin; experiment: Insulin stability in Krebs bicarbonate buffer with α-chymotrypsin and DkOVM over 3 hours; format: biochemical; settings: absence of DkOVM
Experimental: The degradation profiles were generated in the presence of 0.5 μM α-chymotrypsin over a period of 3 hours that served as controls. […] Samples were taken up to 180 min and immediately diluted with cold 1% TFA/TRIS to reduce the pH to 2.5. The samples were analyzed by the RP-HPLC method reported earlier.

[6] = system: apical epithelium; settings: Stoll et al. 2000; cited from earlier work
[7] = system: rat GIT segments; settings: cited from earlier work; for Papp × 10^7 cm/sec of insulin: Rat, Everted gut sac
[8] = cited from earlier work
[9] = system: rat GIT segments; settings: cited from earlier work; for Papp × 10^7 cm/sec of insulin: Rat, Ussing technique
[10] = molecular target: T1, α-chymotrypsin; experiment: Stability of sCT in the presence of α-chymotrypsin and protease inhibitors; format: biochemical
Experimental: (§6) sCT solutions (50 μM) were incubated at 37° C. in 50 mM Tris buffer containing 0.1 mM calcium chloride (pH 8.0). Degradation profiles generated in the presence of 0.5 μM trypsin and 0.1 μM α-chymotrypsin served as controls. The concentrations were selected on the basis of a reported study (Schilling R. J. and Mitra A. K. 1991). DkOVM and TkOVM were evaluated at different enzyme-to-inhibitor ratios to evaluate their inhibition of sCT degradation. CkOVM and aprotinin were used at 1:1 enzyme-to-inhibitor ratio in order to compare the efficacy of various protease inhibitors used. sCT and enzyme solutions were incubated for 15 min at 37° C. before starting the experiments. Samples were taken after 0, 5, 15, 30 and 60 min and immediately diluted with cold 1% trifluoroacetic acid (TFA) to reduce the pH to 2.5. The samples were analysed at 4° C. by HPLC given below. Plots of sCT remaining against time were generated. […] (amount of sCT (%) remaining after 60 min) were used to compare the efficacy of the ovomucoids. Similar studies were performed with aprotinin. The study was also conducted by incubating 50 μM sCT solutions with 0.5 μM trypsin and 0.1 μM α-chymotrypsin added together and the efficacy of TkOVM was evaluated at various ratios.
(§7) sCT was analyzed by means of our validated HPLC method (Shah R B, et al., 2003). Briefly, a computer controlled Varian Chromatography workstation consisting of the following components was used: Two Dynamax SD-200 pumps, an AI-200A autosampler fitted with a 100 μl injection loop, a Dynamax UV-1 detector and Star 5.3 chromatography software. Room temperature was maintained for the column and chromatographic separations were carried out on a C-18 Vydac 218MS54 column (5 μm, 4.6×250 mm) with a pore size of 300 Å. 50 μl of samples were injected into the column which were analyzed by the reversed phase HPLC method. The mobile phase consisted of 0.05% v/v TFA-Water (A) and 0.05% v/v TFA-Acetonitrile (B). The gradient conditions were 20-35% B for 10 min, 35-37% B from 10th to 20th min and 37-20% B from 20th to 25th min at a flow rate of 1 ml/min. […] Concentrations of sCT were quantified from integrated peak areas and calculated by interpolation from an according standard curve.

[11] = molecular target: T2, trypsin; experiment: Stability of sCT in the presence of trypsin and protease inhibitors; format: biochemical
Experimental: as §6, §7

[12] = system: rat jejunum; experiment: in vitro
Source text: as §3
as §4, with “necessary. […]” for “necessary.”
(§8) For the marker studies, the concentration of ^14C mannitol in donor compartment was 3.5×10^−5 μM and that of H testosterone was 4×10^−2 μM. The integrity of the tissues was determined by calculating the permeability coefficient (Papp) of mannitol. […] Aliquots of 10 μL were taken from the mucosal side at the beginning and end of the experiment and analyzed by a HPLC method discussed later. […] The radioactive samples were analyzed by using a liquid scintillation counter.
as §5

[13] = in vitro; settings: male, Sprague Dawley, rat, pH 7.4
Source text: as §3
as §4, with “necessary. […]” for “necessary.”
as §8, §5

[14] = chymotrypsin 0.1 μM, enzyme:inhibitor 1:1

O=C(O)CN(CCN(CC(=O)O)CC(=O)O)CC(=O)O [EDTA]
% I60 min (insulin remaining at 60 minutes) ([1]; chymotrypsin + 0.5 mM EDTA, no inhibitor): 0.32 ± 0.33%

insulin
insulin reaching the liver via the portal vein that undergoes degradation [2]: About 50% | % I60 min (insulin remaining at 60 minutes) ([3]; no inhibitor): 68.79 ± 1.85% | cumulative amount of insulin permeated at the end of three hours ([4]; jejunum): 0.04±0.023 IU | Permeability of insulin (P × 10^7 cm/sec) ([4]; rat jejunum, insulin 100 μM + α-chymotrypsin 0.5 μM + DkOVM 0.0 μM): 0.0 × 10^7 cm/sec | Permeability of insulin (P × 10^7 cm/sec) ([4]; rat jejunum, insulin 100 μM alone): 0.922 ± 0.168 × 10^7 cm/sec | Papp of insulin ([4]; rat jejunum, insulin alone): 0.922±0.168 ×10^−7 cm/sec | insulin (%) remaining at the end of 3 hours [5]: negligible | apical epithelial permeability of insulin [6]: 0.032 ×10⁻⁶ cm/s | Papp × 10^7 cm/sec of insulin ([7]; Duodenum): 0.78 ± 0.54 × 10^7 cm/sec | Papp × 10^7 cm/sec of insulin ([7]; Ileum): 1.54 ± 0.29 × 10^7 cm/sec | Papp × 10^7 cm/sec of insulin ([7]; Jejunum): 1.385 ± 0.265 × 10^7 cm/sec | reported Papp of insulin from rat jejunum ([7]; Schilling & Mitra 1990): 5±2 ×10^−7 cm/sec | % I60 min (insulin remaining at 60 minutes) ([1]; insulin 18 μM alone, no enzyme): 100% | insulin degraded in 60 minutes ([1]; α-chymotrypsin, control without inhibitor): more than 90% | peak time ([8]; pulmonary route): 5 to 60 min | peak time ([8]; subcutaneous route): 6 to 150 min | reported Papp of insulin from rat jejunum ([9]; Asada et al. 1995): 12.27±1.73 ×10^−7 cm/sec | Papp × 10^7 cm/sec of insulin ([9]; Colon): 4.05 ± 1.09 × 10^7 cm/sec | Papp × 10^7 cm/sec of insulin ([9]; Duodenum): 4.85 ± 0.99 × 10^7 cm/sec | Papp × 10^7 cm/sec of insulin ([9]; Jejunum): 12.27 ± 1.73 × 10^7 cm/sec

Aprotinin
% I60 min (insulin remaining at 60 minutes) ([3]; enzyme:inhibitor 1:1): 97.99 ± 0.08% | % I60 min (insulin remaining at 60 minutes) [1, 14]: 69.65 ± 6.04% | Amount (%) of sCT remaining at 60 min (I60) [10, 14]: 35.87 ± 1.06% | Ratio (half-life versus α-chymotrypsin alone) ([10]; α-chymotrypsin:inhibitor 1:1): 1.82 | Amount (%) of sCT remaining at 60 min (I60) ([11]; trypsin 0.5 μM, enzyme:inhibitor 1:1): 83.36 ± 8.92% | Ratio (half-life versus trypsin alone) ([11]; trypsin:inhibitor 1:1): 199.34

OC[C@@H](O)[C@@H](O)[C@H](O)[C@H](O)CO [^14C Mannitol, D-[1-^14C] mannitol]
^14C Mannitol Permeability × 10^6 cm/sec [12]: 3.465 ± 0.251 × 10^6 cm/sec | ^14C Mannitol Ratio ([12]; male, Sprague Dawley, rat, 180 min, pH 7.4): 1.0 | Papp at 180 min [13]: 3.46 ± 0.251 ×10⁻⁶ cm/s

C[C@H](CCC(=O)NCC(=O)[O-])[C@H]1CC[C@H]2[C@@H]3[C@H](O)C[C@@H]4C[C@H](O)CC[C@]4(C)[C@H]3C[C@H](O)[C@]12C.[Na+] [NaGC, sodium glycocholate]
% I60 min (insulin remaining at 60 minutes) ([1]; chymotrypsin + 30 mM NaGC, no inhibitor): 4.66 ± 0.8%
